Results taken from the supplement of paper PMC11316812.
± gives the standard deviation of the averaged measurements.

Tests used:
hTERT-HMEC = assay: percentage of EdU-negative (G0-arrested) nuclei per well, 72 h; higher = more G0 arrest; conditions: reference: sequence is the full UniProt precursor, the tested protein was the secreted form or ectodomain
MCF7 = assay: as above; conditions: reference: sequence is the full UniProt precursor, the tested protein was the secreted form or ectodomain
[1] = protein concentration 0.0225 µM
[2] = protein concentration 0.03125 µM
[3] = protein concentration 0.3125 µM
[4] = protein concentration 0.00575 µM
[5] = protein concentration 0.0575 µM
[6] = protein concentration 0.01325 µM
[7] = protein concentration 0.1325 µM
[8] = protein concentration 0.00742857 µM
[9] = protein concentration 0.0742857 µM
[10] = protein concentration 0.0357143 µM
[11] = protein concentration 0.357143 µM
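Also: secreted proteins added to cultured cells, EdU pulse at the end, nuclei found by Hoechst imaging, EdU status from nuclear versus surrounding ring intensity ratio, PBS as neutral control.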

## MVLCFPLLLLLLVLWGPVCPLHAWPKRLTKAHWFEIQHIQPSPLQCNRAMSGINNYTQHCKHQNTFLHDSFQNVAAVCDLLSIVCKNRRHNCHQSSKPVNMTDCRLTSGKYPQCRYSAAAQYKFFIVACDPPQKSDPPYKLVPVHLDSIL
hTERT-HMEC; [1]
  percentage of EdU-negative: 4.8 ± 0.73%
hTERT-HMEC; protein concentration 0.225 µM
  percentage of EdU-negative: 7.49 ± 1.4%
MCF7; [1]
  percentage of EdU-negative: 25.2 ± 2.5%
MCF7; protein concentration 0.225 µM
  percentage of EdU-negative: 25 ± 4.7%

## MLLLGAVLLLLALPGHDQETTTQGPGVLLPLPKGACTGWMAGIPGHPGHNGAPGRDGRDGTPGEKGEKGDPGLIGPKGDIGETGVPGAEGPRGFPGIQGRKGEPGEGAYVYRSAFSVGLETYVTIPNMPIRFTKIFYNQQNHYDGSTGKFHCNIPGLYYFAYHITVYMKDVKVSLFKKDKAMLFTYDQYQENNVDQASGSVLLHLEVGDQVWLQVYGEGERNGLYADNDNDSTFTGFLLYHDTN
hTERT-HMEC; [2]
  percentage of EdU-negative: 5.07 ± 0.4%
hTERT-HMEC; [3]
  percentage of EdU-negative: 5.02 ± 0.22%
MCF7; [2]
  percentage of EdU-negative: 26.2 ± 2.3%
MCF7; [3]
  percentage of EdU-negative: 25.6 ± 1.1%

## MKWLLLLGLVALSECIMYKVPLIRKKSLRRTLSERGLLKDFLKKHNLNPARKYFPQWEAPTLVDEQPLENYLDMEYFGTIGIGTPAQDFTVVFDTGSSNLWVPSVYCSSLACTNHNRFNPEDSSTYQSTSETVSITYGTGSMTGILGYDTVQVGGISDTNQIFGLSETEPGSFLYYAPFDGILGLAYPSISSSGATPVFDNIWNQGLVSQDLFSVYLSADDQSGSVVIFGGIDSSYYTGSLNWVPVTVEGYWQITVDSITMNGEAIACAEGCQAIVDTGTSLLTGPTSPIANIQSDIGASENSDGDMVVSCSAISSLPDIVFTINGVQYPVPPSAYILQSEGSCISGFQGMNLPTESGELWILGDVFIRQYFTVFDRANNQVGLAPVA [P0DJD7]
hTERT-HMEC; [4]
  percentage of EdU-negative: 4.41 ± 0.41%
hTERT-HMEC; [5]
  percentage of EdU-negative: 5.85 ± 0.73%
MCF7; [4]
  percentage of EdU-negative: 25.5 ± 2.2%
MCF7; [5]
  percentage of EdU-negative: 24.6 ± 1.6%

## MTTWSLRRRPARTLGLLLLVVLGFLVLRRLDWSTLVPLRLRHRQLGLQAKGWNFMLEDSTFWIFGGSIHYFRVPREYWRDRLLKMKACGLNTLTTYVPWNLHEPERGKFDFSGNLDLEAFVLMAAEIGLWVILRPGPYICSEMDLGGLPSWLLQDPGMRLRTTYKGFTEAVDLYFDHLMSRVVPLQYKRGGPIIAVQVENEYGSYNKDPAYMPYVKKALEDRGIVELLLTSDNKDGLSKGIVQGVLATINLQSTHELQLLTTFLFNVQGTQPKMVMEYWTGWFDSWGGPHNILDSSEVLKTVSAIVDAGSSINLYMFHGGTNFGFMNGAMHFHDYKSDVTSYDYDAVLTEAGDYTAKYMKLRDFFGSISGIPLPPPPDLLPKMPYEPLTPVLYLSLWDALKYLGEPIKSEKPINMENLPVNGGNGQSFGYILYETSITSSGILSGHVHDRGQVFVNTVSIGFLDYKTTKIAVPLIQGYTVLRILVENRGRVNYGENIDDQRKGLIGNLYLNDSPLKNFRIYSLDMKKSFFQRFGLDKWSSLPETPTLPAFFLGSLSISSTPCDTFLKLEGWEKGVVFINGQNLGRYWNIGPQKTLYLPGPWLSSGINQVIVFEETMAGPALQFTETPHLGRNQYIK [Q8IW92]
hTERT-HMEC; [6]
  percentage of EdU-negative: 4.88 ± 0.97%
hTERT-HMEC; [7]
  percentage of EdU-negative: 9.63 ± 0.41%
MCF7; [6]
  percentage of EdU-negative: 23.6 ± 0.28%
MCF7; [7]
  percentage of EdU-negative: 27.7 ± 0.33%

## MGALARALPSILLALLLTSTPEALGANPGLVARITDKGLQYAAQEGLLALQSELLRITLPDFTGDLRIPHVGRGRYEFHSLNIHSCELLHSALRPVPGQGLSLSISDSSIRVQGRWKVRKSFFKLQGSFDVSVKGISISVNLLLGSESSGRPTVTASSCSSDIADVEVDMSGDLGWLLNLFHNQIESKFQKVLESRICEMIQKSVSSDLQPYLQTLPVTTEIDSFADIDYSLVEAPRATAQMLEVMFKGEIFHRNHRSPVTLLAAVMSLPEEHNKMVYFAISDYVFNTASLVYHEEGYLNFSITDDMIPPDSNIRLTTKSFRPFVPRLARLYPNMNLELQGSVPSAPLLNFSPGNLSVDPYMEIDAFVLLPSSSKEPVFRLSVATNVSATLTFNTSKITGFLKPGKVKVELKESKVGLFNAELLEALLNYYILNTFYPKFNDKLAEGFPLPLLKRVQLYDLGLQIHKDFLFLGANVQYMRV
hTERT-HMEC; [8]
  percentage of EdU-negative: 5.11 ± 0.45%
hTERT-HMEC; [9]
  percentage of EdU-negative: 7.684 ± 0.069%
MCF7; [8]
  percentage of EdU-negative: 23.1 ± 3.5%
MCF7; [9]
  percentage of EdU-negative: 26.4 ± 0.82%

## MLTTLLPILLLSGWAFCSQDASDGLQRLHMLQISYFRDPYHVWYQGNASLGGHLTHVLEGPDTNTTIIQLQPLQEPESWARTQSGLQSYLLQFHGLVRLVHQERTLAFPLTIRCFLGCELPPEGSRAHVFFEVAVNGSSFVSFRPERALWQADTQVTSGVVTFTLQQLNAYNRTRYELREFLEDTCVQYVQKHISAENTKGSQTSRSYTSLVLGVLVGSFIIAGVAVGIFLCTGGRRC [Q9UNN8]
hTERT-HMEC; [10]
  percentage of EdU-negative: 4.92 ± 0.17%
hTERT-HMEC; [11]
  percentage of EdU-negative: 6.22 ± 0.072%
MCF7; [10]
  percentage of EdU-negative: 24.2 ± 1.7%
MCF7; [11]
  percentage of EdU-negative: 25.3 ± 1.2%
